B1: VP16-JMY^469-558 (other)
chain: EKLQYAVSKETLQMMRAKEICLEQKKHALKEEMQSLQGGTEAIARLDQLESDYYDLQLQLYEVQFEILKCEELLLTAQLESIKRLISEKR
notes: Two-hybrid prey used in yeast and in U2OS cells; also called pVP16-JMY^469-558; JMY-VP16
B2: Lex-JMY^469-558 (other)
chain: B1 chain
notes: Yeast two-hybrid bait; also called pLex-JMY^469-558; not shown: LexA part of bait vector pLex (his)

How the values were obtained:
[1] = target: T1, G4-p300 from residue 1302 to 1572 (yeast, UniProt P04386 1-147; Q09472 1302-1572); test: mammalian two-hybrid assay, U2OS cells, pG5-luc reporter
T1 construct: Mammalian two-hybrid bait; also called p300^302-1572 (as printed in the methods)

[2] = target: G4-p300^1572-2283 (yeast, UniProt P04386 1-147; Q09472 1572-2283); test: cell-based or functional assay
[3] = target: G4-p300^611-1257 (yeast, UniProt P04386 1-147; Q09472 611-1257); test: cell-based or functional assay
[4] = target: B1; test: yeast two-hybrid, β-galactosidase induction; prey VP16-JMY^469-558

Binder	binding result [1]	relative activity of luciferase to β-galactosidase (pG5-luc reporter, mammalian two-hybrid assay in U2OS cells) [2]	relative activity of luciferase to β-galactosidase (pG5-luc reporter, mammalian two-hybrid assay in U2OS cells) [3]	binding result [4]
B1	no binding	5 fold increase	4 fold increase	–
B2	–	–	–	binds
